Laboratory results taken from patent US20260102485A1 (CEDARS SINAI MEDICAL CENTER, published 2026).
Positions count from the first letter of the chain named.

T1: human TL1A (hTL1A) antigen (human, UniProt O95150 58-251, limits assumed)
T1 construct: also called TNFSF15
T1 sequence (looked up): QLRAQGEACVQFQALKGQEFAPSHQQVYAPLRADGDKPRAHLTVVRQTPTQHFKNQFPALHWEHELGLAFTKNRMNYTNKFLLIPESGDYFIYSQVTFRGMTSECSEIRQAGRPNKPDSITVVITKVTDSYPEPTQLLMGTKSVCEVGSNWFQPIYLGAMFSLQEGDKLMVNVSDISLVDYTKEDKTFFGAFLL

T2: murine TL1A (murine, UniProt Q5UBV8 94-252, limits assumed)
T2 sequence (looked up): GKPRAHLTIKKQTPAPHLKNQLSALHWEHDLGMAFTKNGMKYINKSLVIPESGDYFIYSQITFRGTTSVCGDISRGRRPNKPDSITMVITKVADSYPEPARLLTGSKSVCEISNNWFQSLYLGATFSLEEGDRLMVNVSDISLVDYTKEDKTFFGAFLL

B1: 5C3D11 (antibody, V domains shown)
VH: EVQLQQSGAELVKPGASVKLSCTASGFDIQDTYMHWVKQRPEQGLEWIGRIDPASGHTKYDPKFQVKATITTDTSSNTAYLQLSSLTSEDTAVYYCSRSGGLPDVWGAGTTVTVSS
VL: QIVLSQSPAILSASPGEKVTMTCRASSSVSYMYWYQQKPGSSPKPWIYATSNLASGVPDRFSGSGSGTSYSLTISRVEAEDAATYYCQQWSGNPRTFGGGTKLEIK
notes: Mouse hybridoma monoclonal antibody; also called 684842-3; anti-TL1A antibody 5C3D11
B2: 9E12E5 (antibody, V domains shown)
VH: QVHLQQSGPELVKPGASVKLSCKASGYTFTKYDINWVRQRPEQGLEWIGWIFPGDGRTDYNEKFKGKATLTTDKSSSTAYMEVSRLTSEDSAVYFCARYGPAMDYWGQGTSVTVAS
VL: DVLMTQTPLSLPVSLGDQASISCRSSQTIVHSNGDTYLDWFLQKPGQSPKLLIYKVSNRFSGVPDRFSGSGSGTDFTLKISRVEAEDLGVYYCFQGSHVPYTFGGGTKLEIK
notes: Mouse hybridoma monoclonal antibody; also called 684842-6; anti-TL1A antibody 9E12E5
B3: AS12824 (antibody, V domains shown)
VH: QVQLVQSGAEVKKPGASVKVSCKASGFDICDTYMHWVKQRPGQGLEWIGRIDPASGHTKYDPKFQVRATITTDTSTSTAYLELSSLRSEDTAVYYCARSGGLPDVWGQGTTVTVSS
VL: EIVLTQSPGTLSASPGERATMSCRASSSVSYMYWYQQKPGQAPRPWIYATSNLASGVPDRFSGSGSGTDYTLTISRVEPEDFAVYYCQQWSGNPRTFGGGTKLEIK
notes: Humanized 5C3D11 clone from a phage display library; also called 15
B4: AS12825 (antibody, V domains shown)
VH: B3 VH with R40A, I48M, I70M, A97S
VL: B3 VL with A19V, P45L, W46L, Y70F
notes: Humanized 5C3D11 clone from a phage display library; also called 16
B5: AS12823 (antibody, V domains shown)
VH: B3 VH with V20L, K38R, I70M, A79V
VL: B3 VL with A13L, V57I, Y70F
notes: Humanized 5C3D11 clone from a phage display library; also called 14
B6: AS12816 (antibody, V domains shown)
VH: B3 VH with T72R, A97S
VL: B3 VL with A19V, M21L, Y70F, V77L
notes: Humanized 5C3D11 clone from a phage display library
B7: AS12819 (antibody, V domains shown)
VH: B3 VH with K12V, V20L, K38R, I48M, A68V, I70M, A79V
VL: B3 VL with A13L, A19V, Y70F, L103V
notes: Humanized 5C3D11 clone from a phage display library; also called 10

target: T1, human TL1A (hTL1A) antigen; test: Biacore (SPR), TL1A as analyte

Binder | Kd [nM]
B1 | 0.079
B2 | 0.52

target: T1, human TL1A (hTL1A) antigen; test: cell-based or functional assay

Binder | EC50, inhibition of human TL1A induced IFN-γ production (percent of IFN-γ production without inhibitor) [nM]
B2 | 2.4

target: T1, human TL1A (hTL1A) antigen; test: cell-based or functional assay; remark: another data set of the same source

Binder | EC50, inhibition of human TL1A induced IFN-γ production (percent of IFN-γ production without inhibitor) [nM]
B1 | 1

target: T1, human TL1A (hTL1A) antigen; test: SPR, affinity ranking, clone as ligand

Binder | Kd [nM] | koff [s⁻¹] | kon [M⁻¹ s⁻¹]
B3 | 0.0163 | 1.69e-05 | 1.03e+06
B4 | 0.105 | 5.45e-05 | 518000
B5 | 0.0424 | 3.66e-05 | 864000
B6 | 0.062 | 4.73e-05 | 763000
B7 | 0.0462 | 3.81e-05 | 825000

target: T1, human TL1A (hTL1A) antigen; test: SPR, multi-cycle, antibody as ligand, TL1A analyte

Binder | kon [M⁻¹ s⁻¹]
B3 | 1.07e+06
B5 | 1.11e+06
B6 | 819000
B7 | 946000

target: T2, murine TL1A; test: MSD electrochemiluminescence plate assay, antibody titrated on plates coated with murine TL1A
Description: Anti-human TL1A monoclonal antibodies 9E12E5 and 5C3D11 neutralize the activity of human TL1A in vitro. […] MSD plates were coated with murine TL1A and incubated with various concentrations of 5C3D11 or 9E12E5 to evaluate the ability of the antibody to recognize murine TL1A, as shown in FIG. 6. Human TL1A was included as a positive control. 5C3D11 recognizes murine TL1A in a concentration dependent manner. The binding profile of both the 5C3D11 and 9E12E5 antibodies were assessed using a TL1A transfected HEK293 cell line and compared to the untransfected parental HEK293 cell line. Fluorescent staining of the anti-TL1A antibodies in TL1A expressing HEK293 cells is compared to the untransfected parental HEK293 cells, as shown in FIG. 7.

Binder | binding result
B2 | no binding (tested: 100 ng/ml)
